This is an account of results in patent publication US20050228169A1 (published 2005).

For this test, the target named is T1, GST-syntaxin-1a (1-266AA) (human, UniProt P08515 1-218 = GST; Q16623 1-266).
T1 construct: Expressed in E. coli DH5a and purified on glutathione-Sepharose; also called GST-syntaxin-1a fused protein; syntaxin-1a-GST
The test can be described thus: GST pull-down: GST-syntaxin-1a (17 µg) on glutathione-Sepharose, 16 hours at 4° C.; Western blot with anti-penta His antibody. On the procedure: KIAA1006 polypeptide (the histidine-tagged KIAA1006 polypeptide described above) and its C-terminal truncated product (the histidine-tagged C-terminal truncation product of KIAA1006 polypeptide described above) purified with a cobalt resin were respectively mixed with glutathione-Sepharose (bed volume 10 μl) to which GST (17 μg) was bound, stirred for 6 hours at 4° C., and then centrifuged. The obtained supernatants (GST-glutathione-Sepharose unadsorbed fractions) were respectively added to glutathione-Sepharose (bed volume 10 μl) to which GST-syntaxin-1a (17 μg) was bound, and after stirring for 16 hours at 4° C., the resultants were subjected to centrifugation. The fractions adsorbed to GST-glutathione-Sepharose and the fractions adsorbed to GST-syntaxin-1a-glutathione-Sepharose were eluted with SDS-PAGE sample buffer, respectively, and the binding of syntaxin-1a to KIAA1006 polypeptide or to its C-terminal truncation product was analyzed by Western blotting using anti-penta His antibody (Qiagen).
For the SDS-PAGE, 4-12% Bis-Tris Gel (NOVEX) was used. The detection of a secondary antibody that was labeled with horseradish peroxidase was carried out using ECL Western blotting detection reagents (Amersham Pharmacia Biotech).

T1 sequence (P08515 1-218, tags or fused parts left off): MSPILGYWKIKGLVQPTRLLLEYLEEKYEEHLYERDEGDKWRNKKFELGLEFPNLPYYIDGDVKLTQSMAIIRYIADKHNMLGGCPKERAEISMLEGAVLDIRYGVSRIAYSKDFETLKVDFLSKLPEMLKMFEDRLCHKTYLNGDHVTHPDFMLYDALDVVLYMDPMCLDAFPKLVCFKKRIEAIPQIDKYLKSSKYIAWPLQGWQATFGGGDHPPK

B1: histidine-tagged KIAA1006 C-terminal truncated polypeptide (1-1157AA) (other)
chain: HHHHHHMKKFNFRKVLDGLTASSPGSGSSSGSNSGGGAGSGSVHPAGTAGVLREEIQETLTSEYFQICKTVRHGFPHQPTALAFDPVQKILAIGTRTGAIRILGRPGVDCYCQHESGAAVLQLQFLINEGALVSASSDDTLHLWNLRQKRPAILHSLKFNRERITYCHLPFQSKWLYVGTERGNTHIVNIESFILSGYVIMWNKAIELSTKTHPGPVVHLSDSPRDEGKLLIGYENGTVVFWDLKSKRAELRVYYDEAIHSIDWHHEGKQFMCSHSDGSLTLWNLKSPSRPFQTTIPHGKSQREGRKSESCKPILKVEYKTCKNSEPFIIFSGGLSYDKACRRPSLTIMHGKAITVLEMDHPIVEFLTLCETPYPNEFQEPYAVVVLLEKDLIVVDLTQSNFPIFENPYPMDIHESPVTCTAYFADCPPDLILVLYSIGVKHKKQGYSNKEWPISGGAWNLGAQTYPEIIITGHADGSIKFWDASAITLQMLYKLKTSKVFEKQKVGEGKQTCEIVEEDPFAIQMIYWCPESRIFCVSGVSAYVIIYKFSRHEITTEIVSLEVRLQYDVEDIITPEPETSPPFPDLSAQLPSSRSLSGSTNTVASEGVTKDSIPCLNVKTRPVRMPPGYQAELVIQLVWVDGEPPQQITSLAVSSAYGIVAFGNCNGLAVVDFIQKTVLLSMGTIDLYRSSDLYQRQPRSPRKNKQFIADNFCMRGLSNFYPDLTKRIRTSYQSLTELNDSPVPLELERCKSPTSDHVNGHCTSPTSQSCSSGKRLSSADVSKVNRWGPGRPPFRKAQSAACMEISLPVTTEENRENSYNRSRSSSISSIDKDSKEAITALYFMDSFARKNDSTISPCLFVGTSLGMVLIISLNLPLADEQRFTEPVMVLPSGTFLSLKGAVLTFSCMDRMGGLMQPPYEVWRDPNNIDENEKSWRRKVVMNSSSASQEIGDHQYTIICSEKQAKVFSLPSQTCLYVHNITETSFILQANVVVMCSSACLACFCANGHIMIMSLPSLRPMLDVNYLPLTDMRIARTFCFTNEGQALYLVSPTEIQRLTYSQEMCDNLQDMLGDLFTPIETPEAQNRGFLKGLFGGSGQTFDREELFGEASAGKASRSLAQHIPGPGSIEGMKGAAGGVMGELTRARIALDERGQRLGELEEKT
notes: Expressed in sf9 insect cells by baculovirus and purified on cobalt resin; The junction of the tag is as noted for m1; also called C-terminal truncated product; C-terminal truncation product of KIAA1006 polypeptide
Regarding B1, the binding result is “no binding”.
